Results: PMC4928127, “Determination of GLUT1 Oligomerization Parameters using Bioluminescent Förster Resonance Energy Transfer” (Scientific Reports, 2016)

Target: T1, Nluc-GLUT1 (mouse, UniProt P17809 1-492)
T1 construct: facilitated glucose transporter GLUT1 (SLC2A1), mouse Glut1 open reading frame; BRET donor; also called GLUT1 fused to Nluc at the N-terminus; not shown: Nanoluciferase (Nluc), N-terminal, kept
T1 sequence (looked up): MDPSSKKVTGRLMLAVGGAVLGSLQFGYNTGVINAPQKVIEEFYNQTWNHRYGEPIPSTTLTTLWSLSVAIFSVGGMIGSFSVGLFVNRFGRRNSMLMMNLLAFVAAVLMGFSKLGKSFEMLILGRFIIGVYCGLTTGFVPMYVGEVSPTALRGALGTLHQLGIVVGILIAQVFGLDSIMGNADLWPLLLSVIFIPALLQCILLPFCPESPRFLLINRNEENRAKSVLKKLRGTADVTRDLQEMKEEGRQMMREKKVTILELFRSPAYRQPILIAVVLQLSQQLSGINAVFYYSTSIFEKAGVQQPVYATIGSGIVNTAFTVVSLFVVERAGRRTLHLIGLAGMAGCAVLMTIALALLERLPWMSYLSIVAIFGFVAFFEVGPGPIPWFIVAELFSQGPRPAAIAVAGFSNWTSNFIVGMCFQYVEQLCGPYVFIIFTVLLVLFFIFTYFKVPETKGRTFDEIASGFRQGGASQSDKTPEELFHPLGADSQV
Assay: FRET or BRET; stable polyclonal 293FT/dox^GB1 cells: constitutive Nluc-GLUT1, mCherry-GLUT1 induced 48 hours with a 2-fold serial dilution of doxycycline; corrected BRET against doxycycline and against mCherry-GLUT1 level relative to endogenous GLUT1 by immunoblot
Conditions: partners not purified

B1: mCherry-GLUT1 (natural protein, mouse, UniProt P17809 1-492, looked up)
chain: MDPSSKKVTGRLMLAVGGAVLGSLQFGYNTGVINAPQKVIEEFYNQTWNHRYGEPIPSTTLTTLWSLSVAIFSVGGMIGSFSVGLFVNRFGRRNSMLMMNLLAFVAAVLMGFSKLGKSFEMLILGRFIIGVYCGLTTGFVPMYVGEVSPTALRGALGTLHQLGIVVGILIAQVFGLDSIMGNADLWPLLLSVIFIPALLQCILLPFCPESPRFLLINRNEENRAKSVLKKLRGTADVTRDLQEMKEEGRQMMREKKVTILELFRSPAYRQPILIAVVLQLSQQLSGINAVFYYSTSIFEKAGVQQPVYATIGSGIVNTAFTVVSLFVVERAGRRTLHLIGLAGMAGCAVLMTIALALLERLPWMSYLSIVAIFGFVAFFEVGPGPIPWFIVAELFSQGPRPAAIAVAGFSNWTSNFIVGMCFQYVEQLCGPYVFIIFTVLLVLFFIFTYFKVPETKGRTFDEIASGFRQGGASQSDKTPEELFHPLGADSQV
notes: facilitated glucose transporter GLUT1 (SLC2A1), mouse Glut1 open reading frame; BRET acceptor; also called GLUT1 fused to mCherry at the N-terminus; not shown: mCherry, N-terminal, kept
In the case of B1, the “doxycycline concentration at which ~50% of mCherry-GLUT1 is in multimeric complexes (doxycycline EC50 of BRET)” value is reported as 4.69 ng/mL.
